{
  "source": "patent US20070060522A1",
  "assay_in_all_cases": "cell-based or functional assay",
  "key": {"[1]": {"molecular_target": "αMβ2 (Mac-1; CD11b/CD18) on human peripheral blood monocytes (human) (UniProt P11215)"}, "[2]": {"molecular_target": "CD54 (ICAM-1) on A375 human melanoma cells (human) (UniProt P05362)", "sequence (P05362 28-532)": "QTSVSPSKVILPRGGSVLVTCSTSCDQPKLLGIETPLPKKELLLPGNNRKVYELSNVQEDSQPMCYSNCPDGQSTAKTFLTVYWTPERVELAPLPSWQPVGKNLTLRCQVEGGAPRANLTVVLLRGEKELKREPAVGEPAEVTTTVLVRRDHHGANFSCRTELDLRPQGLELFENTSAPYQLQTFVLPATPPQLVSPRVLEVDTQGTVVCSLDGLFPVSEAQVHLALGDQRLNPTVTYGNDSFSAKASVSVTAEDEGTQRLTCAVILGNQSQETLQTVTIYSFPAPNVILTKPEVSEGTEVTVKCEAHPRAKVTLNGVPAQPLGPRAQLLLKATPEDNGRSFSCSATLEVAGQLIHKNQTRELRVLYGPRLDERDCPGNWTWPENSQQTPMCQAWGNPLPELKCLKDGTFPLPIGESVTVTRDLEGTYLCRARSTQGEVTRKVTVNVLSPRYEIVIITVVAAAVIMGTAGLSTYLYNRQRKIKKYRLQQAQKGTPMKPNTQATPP"}, "[3]": {"molecular_target": "αLβ2 (LFA-1; CD11a/CD18) on human peripheral blood leukocytes (human) (UniProt P20701)"}},
  "data": [
    {"substance": "blocking monoclonal anti-αMβ2 antibody (clone ICRF44)", "values": [
      {"measurement": "inhibition of monocyte adherence to sFn pretreated tumor cells", "setting": "[1]", "value": 80, "unit": "%"},
      {"measurement": "inhibition of monocyte adherence to untreated A375 cells", "setting": "[1]", "value": 22.5, "unit": "%"}
    ]},
    {"substance": "murine anti-human monoclonal blocking antibody against CD54 (clone 84H10)", "values": [
      {"measurement": "inhibition of adherence of sFn pretreated monocytes to A375 cells", "setting": "[2]", "value": 86, "unit": "%"},
      {"measurement": "inhibition of adherence of untreated monocytes to A375 cells", "setting": "[2]", "value": 53, "unit": "%"}
    ]},
    {"substance": "murine anti-human monoclonal blocking antibody against αLβ2 (clone 25.3)", "values": [
      {"measurement": "inhibition of monocyte adherence to sFn pre-treated A375 cells", "setting": "[3]", "value": 23, "unit": "%"},
      {"measurement": "inhibition of monocyte adherence to untreated A375 cells", "setting": "[3]", "value": 80, "unit": "%"}
    ]},
    {"substance": "soluble fibrin (sFn) (from UniProt P02671 36-629; P02675 45-491; P02679 27-453) (ligand)", "values": [
      {"measurement": "monocyte adherence when monocytes and A375 cells were both pre-treated with sFn, static microplate assay (untreated control 32.9+1.3%)", "setting": "[2]", "value": 15.9, "unit": "%"},
      {"measurement": "adherence of sFn treated monocytes to untreated A375 cells, static microplate assay (untreated control 32.9+1.3%)", "setting": "[1]", "value": 38.8, "unit": "%"},
      {"measurement": "monocyte adherence to sFn pre-treated A375 cells, static microplate assay (untreated control 32.9+1.3%)", "setting": "[1]", "value": 68.5, "unit": "%"}
    ]}
  ]
}
